Measurements from patent US20030216297A1, “Pharmaceutical composition” (SANKYO COMPANY, LIMITED, priority 2002, published 2003).

Experiment: Serum concentration of OCIF after intravenous injection in rats
Format: in vivo
Settings: Wistar female rat, single i.v. dose 0.5 mg OCIF/kg, 6 hours after administration
Experimental: Five-week old Wistar female rat (having a body weight of about 100 g) were made to abstain from food overnight. The preparation of OCIF and dextran sulfate prepared in either Preparation Example 1, Preparation Example 2 or Reference Example 1 which was to be tested was diluted to a concentration of 0.25 mg/ml with PBS (pH 7.4) containing 0.01% Polysorbate 80 to prepare an injectable solution, which was then administered to the tail of one of the test rats via a vein in a single dose at an injected level of 2 ml/kg body weight. 6 hours after administration, blood was taken from the heart of the rat. […]
After stirring gently using a shaking machine (Micro plate mixer NS-P: manufactured by Iuchi Seiei-Do Co Ltd.), the absorbance of each well at a wavelength of 450 nm was measured using a micro plate reader (SPECTRA THERMO: manufactured by TECAN). The OCIF concentration in the tested serum was then calculated from a calibration curve created using the standard OCIF solution. The dose was calculated as the dose of OCIF per kg body weight (mg/kg) by measuring the concentration of OCIF in each injection prepared in 1(a) in a similar manner to the case of the serum.
The OCIF in the serum obtained in 1(b) above was quantified for each sample according to the method described in 1(c) above.

Prep. 4: OCIF/DS5 complex: DS5 130 mg/ml, OCIF 6.5 mg/ml, 4 °C, pH 10.5, 72 h
Serum concentration (OCIF): 370 ng/mL
